In paper PMC2199961 one finds percent of actin in the pellet (actin alone) and percent of actin in the pellet (with anti-aSM-1 data, which are given here for one substance.

“And” between values parts separate entries of the source, which are not always exact repeats. Equal entries are not always repeated.

The target in this assay is aortic smooth muscle actin (alpha-smooth muscle actin) (bovine) (UniProt P62739). Description: co-sedimentation.

As for “aortic smooth muscle actin (alpha-smooth muscle actin) (from UniProt P62739 3-377) (natural protein)”, the percent of actin in the pellet (actin alone) is 10% and 20%; the percent of actin in the pellet (with anti-aSM-1 at 1:16 antibody/actin) is > 60%.
